This data set deals with the molecule itself. Description: crystal structure; SaGpsB 1-75 at 5 mg/mL, no ligand; reservoir 1.0 M succinic acid, 0.1 M HEPES pH 7.5, 1 %w/v PEG 2000 MME; one dimer in the asymmetric unit; molecular replacement.

As usually defined, the stoichiometry N is a count of units in the complex or per binding partner.

B1: N-terminal domain (residues 1–75) of Staphylococcus aureus GpsB (domain or fragment, Staphylococcus aureus strain NCTC 8325, UniProt Q2FYI5 1-75, looked up)
chain: MSDVSLKLSAKDIYEKDFEKTMARGYRREEVDAFLDDIIADYQKMADMNNEVVKLSEENHKLKKELEELRLRVAT
notes: GpsB, Staphylococcus aureus strain NCTC 8325, Uniprot Q2FYI5, SAOUHSC_01462, residues 1-75 (N-terminal dimerization domain); Asymmetric homodimer in the crystal; also called SaGpsB; GpsB 1–75; source: E. coli BL21 (DE3), purified (Ni-NTA, SUMO protease cleavage, anion exchange, Superdex75 SEC); not shown: 10xHis, N-terminal, cleaved; SUMO, N-terminal, cleaved
On to B1, for which the “stoichiometry N” value turned out to be 2.

(Values after article PMC12880628, “X-Ray Crystal Structure of the N-Terminal Domain of Staphylococcus Aureus Cell-Cycle Protein GpsB” (Crystals, 2025).)
